# From patent US12281147 (dated 2025)
# Molecular target: IL-21_mouse_WT Fc fusion protein (mouse; human, UniProt Q9ES17 18-146)
# Assay: BLI
row,Kd [nM],Binder
1,5.08,"mouse IL-21R, His-tagged (BLI antigen) (receptor, not shown: small tags and cut ends) not shown"
2,6.38,"recombinant human IL-21R His tag (Acro Biosystems) (receptor, not shown: small tags and cut ends) not shown"
